B1: SNAP91 (parent)
chain: FAAPSPATTASPAKVDSSGVIDLF
B2: INTS3 (parent)
chain: FSDDEEDLNSKGKKREFRFHPIKE
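Note: lentivirally expressed fusions sorted by FACS into six bins by GFP to DsRed ratio, PSI derived from sequencing read proportions per bin multiplied by bin number.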

Variants of: B1
Test: protein stability index of a GFP-peptide fusion (GPS, HEK-293T) (PSI 1-6); higher = more stable
Settings: c terminus: a fixed tail appended
In the case of FAAPSDATTASPAKVDSSGVIDLF [P6D], the protein stability index is reported as 3.01. Work on FAAPSCATTASPAKVDSSGVIDLF [P6C] yielded a protein stability index of 2.32.

Variants of: B2
Test: as above
Settings: c terminus: a fixed tail appended
FSDDEEDLNSKGKKREFRFHPSKE [I22S] gave a protein stability index of 2.63. FSDDEEDLNSKGKKREFRFHPNKE [I22N] gave a protein stability index of 2.88. Work on FSDDEEDLNSKGKKREFRFHPGKE [I22G] yielded a protein stability index of 2.98. With FSDDEEDLNSKGKKREFRFHPWKE [I22W] the protein stability index was 2.33. In the case of FSDDEEDLNSKGKKREFRFHPHKE [I22H], the protein stability index is reported as 2.91. Work on FSDDEEDLNSKGKKREFRFHPAKE [I22A] yielded a protein stability index of 2.88. FSDDEEDLNSKGKKREFRFHPKKE [I22K] gave a protein stability index of 2.81. With FSDDEEDLNSKGKKREFRFHPVKE [I22V] the protein stability index was 3.07. With FSDDEEDLNSKGKKREFRFHPLKE [I22L] the protein stability index was 3.19. Variant FSDDEEDLNSKGKKREFRFHPFKE [I22F] has a protein stability index of 2.12. Variant FSDDEEDLNSKGKKREFRFHPMKE [I22M] has a protein stability index of 3.2. With FSDDEEDLNSKGKKREFRFHPPKE [I22P] the protein stability index was 3.25. FSDDEEDLNSKGKKREFRFHPRKE [I22R] gave a protein stability index of 3. In the case of FSDDEEDLNSKGKKREFRFHPDKE [I22D], the protein stability index is reported as 3.98. Work on FSDDEEDLNSKGKKREFRFHPYKE [I22Y] yielded a protein stability index of 2.48. FSDDEEDLNSKGKKREFRFHPCKE [I22C] showed a protein stability index of 2.48. FSDDEEDLNSKGKKREFRFHPEKE [I22E] gave a protein stability index of 3.89. With FSDDEEDLNSKGKKREFRFHPTKE [I22T] the protein stability index was 3.29. Variant FSDDEEDLNSKGKKREFRFHPQKE [I22Q] has a protein stability index of 3.32. For FSDDEEDLNSKGKKREFRFKPIKE [H20K], the protein stability index was 5.13. In the case of FSDDEEDLNSKGKKREFRFIPIKE [H20I], the protein stability index is reported as 4.59. FSDDEEDLNSKGKKREFRFSPIKE [H20S] showed a protein stability index of 5.18. FSDDEEDLNSKGKKREFRFTPIKE [H20T] gave a protein stability index of 4.59. FSDDEEDLNSKGKKREFRFYPIKE [H20Y] gave a protein stability index of 4.51. FSDDEEDLNSKGKKREFRFNPIKE [H20N] showed a protein stability index of 4.69. FSDDEEDLNSKGKKREFRFVPIKE [H20V] gave a protein stability index of 3.92. In the case of FSDDEEDLNSKGKKREFRFGPIKE [H20G], the protein stability index is reported as 4.34. FSDDEEDLNSKGKKREFRFEPIKE [H20E] gave a protein stability index of 5.28. Work on FSDDEEDLNSKGKKREFRFMPIKE [H20M] yielded a protein stability index of 4.83. FSDDEEDLNSKGKKREFRFQPIKE [H20Q] gave a protein stability index of 4.44. FSDDEEDLNSKGKKREFRFRPIKE [H20R] showed a protein stability index of 4.24. Variant FSDDEEDLNSKGKKREFRFLPIKE [H20L] has a protein stability index of 5.1. Variant FSDDEEDLNSKGKKREFRFWPIKE [H20W] has a protein stability index of 4.31. With FSDDEEDLNSKGKKREFRFFPIKE [H20F] the protein stability index was 3.94. FSDDEEDLNSKGKKREFRFPPIKE [H20P] showed a protein stability index of 4.86. Variant FSDDEEDLNSKGKKREFRFHLIKE [P21L] has a protein stability index of 4.25. Variant FSDDEEDLNSKGKKREFRFHRIKE [P21R] has a protein stability index of 4.19. Work on FSDDEEDLNSKGKKREFRFHEIKE [P21E] yielded a protein stability index of 4. Variant FSDDEEDLNSKGKKREFRFHMIKE [P21M] has a protein stability index of 3.32. FSDDEEDLNSKGKKREFRFHSIKE [P21S] showed a protein stability index of 3.88. Work on FSDDEEDLNSKGKKREFRFHAIKE [P21A] yielded a protein stability index of 3.98. Work on FSDDEEDLNSKGKKREFRFHNIKE [P21N] yielded a protein stability index of 4.11. With FSDDEEDLNSKGKKREFRFHTIKE [P21T] the protein stability index was 4.43. In the case of FSDDEEDLNSKGKKREFRFHCIKE [P21C], the protein stability index is reported as 3.28. Work on FSDDEEDLNSKGKKREFRFHVIKE [P21V] yielded a protein stability index of 3.88. FSDDEEDLNSKGKKREFRFHYIKE [P21Y] showed a protein stability index of 3.73. Work on FSDDEEDLNSKGKKREFRFHDIKE [P21D] yielded a protein stability index of 3.76. FSDDEEDLNSKGKKREFRFHKIKE [P21K] showed a protein stability index of 4.55. FSDDEEDLNSKGKKREFRFHGIKE [P21G] showed a protein stability index of 4.16. Variant FSDDEEDLNSKGKKREFRFHHIKE [P21H] has a protein stability index of 4.01. FSDDEEDLNSKGKKREFRFHQIKE [P21Q] showed a protein stability index of 3.44. For FSDDEEDLNSKGKKREFRFHFIKE [P21F], the protein stability index was 3.58. In the case of FSDDEEDLNSKGKKREFRFHIIKE [P21I], the protein stability index is reported as 3.7. Work on FSDDEEDLNSKGKKREFRFHWIKE [P21W] yielded a protein stability index of 2.53. FSDDEEDLNSKGKKREFRFHPIME [K23M] gave a protein stability index of 3.5. FSDDEEDLNSKGKKREFRFHPIEE [K23E] gave a protein stability index of 3.64. FSDDEEDLNSKGKKREFRFHPILE [K23L] gave a protein stability index of 2.95. FSDDEEDLNSKGKKREFRFHPINE [K23N] gave a protein stability index of 3.18. For FSDDEEDLNSKGKKREFRFHPIYE [K23Y], the protein stability index was 2.91. In the case of FSDDEEDLNSKGKKREFRFHPIHE [K23H], the protein stability index is reported as 3.34. FSDDEEDLNSKGKKREFRFHPIAE [K23A] showed a protein stability index of 3.81. With FSDDEEDLNSKGKKREFRFHPIIE [K23I] the protein stability index was 2.93. With FSDDEEDLNSKGKKREFRFHPIDE [K23D] the protein stability index was 4.1. Variant FSDDEEDLNSKGKKREFRFHPITE [K23T] has a protein stability index of 3.52. With FSDDEEDLNSKGKKREFRFHPISE [K23S] the protein stability index was 3.19. FSDDEEDLNSKGKKREFRFHPICE [K23C] gave a protein stability index of 3.43. FSDDEEDLNSKGKKREFRFHPIVE [K23V] gave a protein stability index of 3.06. With FSDDEEDLNSKGKKREFRFHPIFE [K23F] the protein stability index was 3.4. For FSDDEEDLNSKGKKREFRFHPIRE [K23R], the protein stability index was 2.68. For FSDDEEDLNSKGKKREFRFHPIGE [K23G], the protein stability index was 3.19. FSDDEEDLNSKGKKREFRFHPIPE [K23P] gave a protein stability index of 3.06. With FSDDEEDLNSKGKKREFRFHPIWE [K23W] the protein stability index was 2.75. Variant FSDDEEDLNSKGKKREFRFHPIQE [K23Q] has a protein stability index of 3.18. In the case of FSDDEEDLNSKGKKREFRFHPIKV [E24V], the protein stability index is reported as 2.07. Variant FSDDEEDLNSKGKKREFRFHPIKK [E24K] has a protein stability index of 2.14. Work on FSDDEEDLNSKGKKREFRFHPIKM [E24M] yielded a protein stability index of 1.8. Variant FSDDEEDLNSKGKKREFRFHPIKC [E24C] has a protein stability index of 2.18. FSDDEEDLNSKGKKREFRFHPIKY [E24Y] gave a protein stability index of 2.72. With FSDDEEDLNSKGKKREFRFHPIKR [E24R] the protein stability index was 2.31. With FSDDEEDLNSKGKKREFRFHPIKS [E24S] the protein stability index was 2.11. Work on FSDDEEDLNSKGKKREFRFHPIKT [E24T] yielded a protein stability index of 1.81. In the case of FSDDEEDLNSKGKKREFRFHPIKH [E24H], the protein stability index is reported as 2.2. For FSDDEEDLNSKGKKREFRFHPIKN [E24N], the protein stability index was 2.69. Variant FSDDEEDLNSKGKKREFRFHPIKD [E24D] has a protein stability index of 3.07. For FSDDEEDLNSKGKKREFRFHPIKA [E24A], the protein stability index was 2.2. With FSDDEEDLNSKGKKREFRFHPIKG [E24G] the protein stability index was 2.17. With FSDDEEDLNSKGKKREFRFHPIKW [E24W] the protein stability index was 2.45. Work on FSDDEEDLNSKGKKREFRFHPIKQ [E24Q] yielded a protein stability index of 2.35. With FSDDEEDLNSKGKKREFRFHPIKP [E24P] the protein stability index was 1.76. Work on FSDDEEDLNSKGKKREFRFHPIKL [E24L] yielded a protein stability index of 2.14. With FSDDEEDLNSKGKKREFRFHPIKF [E24F] the protein stability index was 1.91. With FSDDEEDLNSKGKKREFRFHPIKI [E24I] the protein stability index was 2.06.

From the supplement of paper PMC10567573
